pKd: −log10 of the molar value.
Biological target: Galectin-3 (R&D Systems) (UniProt P17931)
Assay: SPR

Sequence of UniProt P17931 (P17931 whole entry): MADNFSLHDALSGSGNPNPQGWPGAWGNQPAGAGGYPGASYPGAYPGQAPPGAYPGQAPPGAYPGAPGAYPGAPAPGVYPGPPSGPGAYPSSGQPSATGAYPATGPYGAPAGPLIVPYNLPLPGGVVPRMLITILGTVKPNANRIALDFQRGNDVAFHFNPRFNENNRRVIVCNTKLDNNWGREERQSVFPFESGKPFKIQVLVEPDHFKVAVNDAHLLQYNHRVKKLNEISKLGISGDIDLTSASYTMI

pKd: 5.42
Substance: Bovine lubricin (bPRG4) (natural protein)
